Laboratory results from patent US20060172377.

Key:
[1] = system: T1, SF370.1 recombinase (Streptococcus pyogenes phage SF370.1); assay: cell_activity; conditions: integration of attP (N3) plasmid at pseudo attB; 9 clones without recombinase; 35 of 100 rescued at this site
T1 sequence: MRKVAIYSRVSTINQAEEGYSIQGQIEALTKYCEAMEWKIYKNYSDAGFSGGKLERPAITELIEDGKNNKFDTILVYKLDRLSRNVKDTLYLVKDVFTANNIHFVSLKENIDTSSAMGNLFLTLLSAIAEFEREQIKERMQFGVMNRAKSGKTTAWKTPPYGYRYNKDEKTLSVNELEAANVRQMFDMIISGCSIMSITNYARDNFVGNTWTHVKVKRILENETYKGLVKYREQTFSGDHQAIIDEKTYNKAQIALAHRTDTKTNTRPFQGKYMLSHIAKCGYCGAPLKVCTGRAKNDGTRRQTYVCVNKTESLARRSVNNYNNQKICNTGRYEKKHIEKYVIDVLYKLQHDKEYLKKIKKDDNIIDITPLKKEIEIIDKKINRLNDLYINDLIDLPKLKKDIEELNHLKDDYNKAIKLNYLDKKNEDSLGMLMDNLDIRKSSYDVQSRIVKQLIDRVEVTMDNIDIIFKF

[2] = target: T2, SPβc2 recombinase (yokA) (Bacillus subtilis phage SPβc2) (UniProt O32006); assay: cell_activity; conditions: integration of attP (N1) plasmid at pseudo attB; 0 clones without recombinase; 15 integrations at this site
T2 sequence: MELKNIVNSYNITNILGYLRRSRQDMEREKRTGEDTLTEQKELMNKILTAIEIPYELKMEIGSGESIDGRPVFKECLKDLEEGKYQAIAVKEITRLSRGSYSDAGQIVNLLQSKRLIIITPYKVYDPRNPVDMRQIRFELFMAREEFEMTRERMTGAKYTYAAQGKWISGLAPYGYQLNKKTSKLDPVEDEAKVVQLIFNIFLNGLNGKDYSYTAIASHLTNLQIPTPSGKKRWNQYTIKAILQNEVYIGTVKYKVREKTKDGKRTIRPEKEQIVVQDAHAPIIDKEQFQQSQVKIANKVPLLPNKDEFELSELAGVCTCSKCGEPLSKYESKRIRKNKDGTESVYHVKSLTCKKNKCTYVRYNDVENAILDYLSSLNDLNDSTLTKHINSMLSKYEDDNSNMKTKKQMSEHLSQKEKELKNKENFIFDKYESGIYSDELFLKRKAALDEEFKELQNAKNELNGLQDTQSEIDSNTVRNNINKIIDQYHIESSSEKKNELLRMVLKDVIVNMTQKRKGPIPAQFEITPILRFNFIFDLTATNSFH

| Substance | activity (hygromycinR clones) [1] | activity (hygromycinR clones) [2] |
| --- | --- | --- |
| SF370.1 human pseudo attB | > 100 |  |
| SPβc2 human pseudo attB |  | > 100 |
